The record followed here is publication PMC6358605.

The target of the assay is biotinylated AviTag-BiP^19–413 (NBD), G3I8R9. In words: BLI. As to conditions: chain shown with the change; for response: equilibrium signal, read off a plot; for other: K1/2 max: streptavidin biosensors loaded with biotinylated BiP NBD, equilibrium signal vs [MANF] 0-100 µM, parent: 13.9.

Changes are numbered by the printed parent chain. Numbers in names are those of the source.

Chain of biotinylated AviTag-BiP^19–413 (NBD), G3I8R9 (G3I8R9 19-413): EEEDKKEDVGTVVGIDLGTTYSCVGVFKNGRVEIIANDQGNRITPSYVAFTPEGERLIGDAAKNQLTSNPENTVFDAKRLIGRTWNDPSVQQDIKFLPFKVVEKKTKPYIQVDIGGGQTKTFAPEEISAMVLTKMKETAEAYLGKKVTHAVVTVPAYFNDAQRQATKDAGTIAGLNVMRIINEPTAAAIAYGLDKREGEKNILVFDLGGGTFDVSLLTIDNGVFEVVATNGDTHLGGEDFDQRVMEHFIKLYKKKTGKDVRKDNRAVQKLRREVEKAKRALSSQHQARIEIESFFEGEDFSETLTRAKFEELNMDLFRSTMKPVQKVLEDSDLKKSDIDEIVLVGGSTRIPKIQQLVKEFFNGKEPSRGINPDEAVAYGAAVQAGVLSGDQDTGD

B1: Full-length mouse MANF (wild-type), Q9CXI5 E153A (protein)
chain: LRPGDCEVCISYLGRFYQDLKDRDVTFSPATIEEELIKFCREARGKENRLCYYIGATDDAATKIINEVSKPLAHHIPVEKICEKLKKKDSQICELKYDKQIDLSTVDLKKLRVKELKKILDDWGEMCKGCAAKSDYIRKINELMPKYAPKAASARTDL
With B1, the response (50 µM MANF, parent: est. 0.68) turned out to be 0.17 nm and the response (100 µM MANF, parent: est. 0.78) amounted to 0.24 nm.

B2: Full-length mouse MANF (wild-type), Q9CXI5 R133E (protein)
chain: B1 chain with R112E, A132E
Consider B2, for which the response (50 µM MANF, parent: est. 0.68) was determined as 0.1 nm and the response (100 µM MANF, parent: est. 0.78) is 0.13 nm.

B3: Full-length mouse MANF (wild-type), Q9CXI5 R23A (protein)
chain: B1 chain with R2A, K99N, A132E
As for B3, the response by setting is: (50 µM MANF, parent: est. 0.68) 0.52 nm; (100 µM MANF, parent: est. 0.78) 0.58 nm. The other: K1/2 max (R2 0.978) turned out to be 15.3 µM.

B4: Full-length mouse MANF (wild-type), Q9CXI5 K138A (protein)
chain: B1 chain with K99N, K117A, A132E
Consider B4, for which the response by setting is: (50 µM MANF, parent: est. 0.68) 0.3 nm; (100 µM MANF, parent: est. 0.78) 0.42 nm. Besides, the other: K1/2 max (R2 0.913) was found to be 31 µM.
